This note sets out measurements from paper PMC3879712 (Cell Research, 2013).

The target of series [1] is MLKL in membrane fraction (chemically cross-linked) (UniProt Q9D2Y4). Description: cross-linking.
The target of series [2] is ND-HBD*-3×HA (mouse | not stated) (UniProt Q9D2Y4). Description: non-reducing SDS-PAGE with immunoblot. (In western blotting, separated proteins are transferred to a membrane and probed.)
The target in series [3] is ND-HBD*-GFP-Flag (mouse | not stated) (UniProt Q9D2Y4). Description: SiMPull.
Series [4] concerns the molecule itself. Description: non-reducing SDS-PAGE with immunoblot.

The stoichiometry N is the number of molecules, sites or subunits per partner or assembly. As for “MLKL in membrane fraction (chemically cross-linked) (from UniProt Q9D2Y4 1-472) (natural protein)”, the stoichiometry N in series [1] was more than 4.
“ND-HBD*-3×HA (from UniProt Q9D2Y4-2 1-190)” returned a stoichiometry N in series [2] of 4.
“ND-HBD*-GFP-Flag (from UniProt Q9D2Y4-2 1-190)”: the stoichiometry N in series [3] was less than 4.

B1: endogenous MLKL of L929 cells (natural protein, mouse (endogenous in L929), UniProt Q9D2Y4-2 1-464, looked up)
chain: MDKLGQIIKLGQLIYEQCEKMKYCRKQCQRLGNRVHGLLQPLQRLQAQGKKNLPDDITAALGRFDEVLKEANQQIEKFSKKSHIWKFVSVGNDKILFHEVNEKLRDVWEELLLLLQVYHWNTVSDVSQPASWQQEDRQDAEEDGNENMKVILMQLQISVEEINKTLKQCSLKPTQEIPQDLQIKEIPKEHLGPPWTKLKTSKMSTIYRGEYHRSPVTIKVFNNPQAESVGIVRFTFNDEIKTMKKFDSPNILRIFGICIDQTVKPPEFSIVMEYCELGTLRELLDREKDLTMSVRSLLVLRAARGLYRLHHSETLHRNISSSSFLVAGGYQVKLAGFELSKTQNSISRTAKSTKAERSSSTIYVSPERLKNPFCLYDIKAEIYSFGIVLWEIATGKIPFEGCDSKKIRELVAEDKKQEPVGQDCPELLREIINECRAHEPSQRPSVDGILERLSAVEESTDKKV
As for B1, the “stoichiometry N” value in series [4] was found to be 4.
